According to patent US20250011869A1, “TLR3 INHIBITORS FOR USE IN THE TREATMENT OF DISEASES ASSOCIATED WITH CARDIOVASCULAR CALCIFICATION” (priority 2021, published 2025):
Entries after “also recorded” stand apart in the source; their conditions may differ.

Key:
[1] = system: TLR3; assay: TLR3 expression in valvular interstitial cells (immunoblot / RT-qPCR); type: cell-based, human; settings: immunoblot; 20 μg/ml, 24 h or 48 h (FIG. 7A)
Experimental: Valvular interstitial cells from patients undergoing aortic valve replacement or cardiac transplantation were isolated via collagen digestion as described previously^6. Valves were rinsed in EBSS and subsequently subjected to collagenase digestion (Sigma, St. Louis, MO; 2.5 mg/mL in M199) for 30 minutes at 37° C. Thereafter, tissue samples were vortexed and supernatant containing endothelial cells was removed. Again, collagenase was added to the remaining valve tissue (1 mg/mL) for 3 h at 37° C. For mechanical disintegration of the tissue, vortexing and repeated aspiration via a pipette was performed. The supernatant was transferred into a new tube and subjected to centrifugation (300 g for 8 minutes at 4° C.). Subsequently, cells were resuspended in M199 medium containing 10% fetal calve serum, penicillin, streptomycin, L-Glutamine and amphotericin B (2.5 mg/L).
All cells were cultivated under standard conditions (37° C., supplied with 5% CO2). Passaging of the cells was performed at 70-90% confluency, and cells were only used until passage 7 as described previously^6. […]
RT-PCR was performed as described previously^17. […] The result for the relative gene expression was calculated by the 2-DDCt method. Mean Ct values were calculated from double determinations and samples were considered negative if the Ct values exceeded 4017. […]

[2] = system: TLR3-RUNX2 pathway; assay: Immunoblot of human dermal fibroblasts for the TLR3-RUNX2 pathway; type: cell-based; settings: wild type and empty vector control cells; 5 μg/ml, 6 h
From the text: Human dermal fibroblasts WT and Tlr3^−/− were kindly provided by the Jean-Laurent Casanova group and cultivated in DMEM with 4.5 g/L glucose (Lonza, Basel, Switzerland), 10% FCS (Sigma, St. Louis, MO), penicillin, streptomycin and L-Glutamine. Human dermal fibroblasts CTR cells were provided by the Villunger group and cultivated in DMEM with 4.5 g/L glucose (Lonza, Basel, Switzerland), 10% FCS (Sigma, St. Louis, MO), penicillin, streptomycin and L-Glutamine.
All cells were cultivated under standard conditions (37° C., supplied with 5% CO2). Passaging of the cells was performed at 70-90% confluency, and cells were only used until passage 7 as described previously^6. Polyinosinic: polycytidylic acid (Poly(I:C); Invivogen, San Diego, CA) was used to stimulate cells at a concentration of either 20 μg/mL or 5 μg/ml, depending on the assay. For blockade of TLR3, the commercially available dsRNA/TLR3 inhibitor ((R)-2-(3-Chloro-6-fluorobenzo [b] thiophene-2-carboxamido)-3-phenyl-propanoic acid) was used (Merck, Darmstadt, Germany) at a concentration of 1 μg/ml as described previously^1,7. LY294002 (Invivogen, San Diego, CA), a PI3K inhibitor, was used at a concentration of 10 μM. For blockade of IFNAR1, a specific blocking antibody (Invitrogen, Carlsbad, CA) was used at a concentration of 4 μg/ml. A stable HEK (human embryonic kidney) reporter cell line (TLR3/ISRE LUCPorter; Imgenex, USA) was purchased for luminometer assay experiments. Cells were cultivated according to the manufacturer's protocol in DMEM with 4.5 g/L glucose (Lonza, Switzerland), 10% FCS (Sigma, St. Louis, MO), penicillin/streptomycin, and 4 mM L-glutamine and […] puromycin (Gibco, USA) as selection agent. Reporter experiments were performed as described previously^8. For the protein expression SF21 cells were purchased at ThermoFisher (#11497013) and cultivated in Gibco™ Sf-900™ SFM supplemented with penicillin, streptomycin and L-Glutamine. In vitro stretch was applied using a Flexcell bioreactor (Flexcell International Corporation, Burlington, NC) applying 15% cyclic strain as described previously^9.
Protein from tissue or cell lysates was extracted using a Radioimmunoprecipitation Assay Lysis Puffer (150 mM NaCl, 1% NP-40, 0.5% Sodium Deoxycholate, 0.1% SDS and 50 mM Tris (pH 8,0)). For the extraction of nuclear or cytosolic proteins the NE-PER™ Nuclear and Cytoplasmic Extraction Reagents Kit (ThermoScientific, #78835) was used.
Protein was thereafter separated on SDS-polyacrylamide gels of different percentages and transferred to nitrocellulose membranes as described previously^18. After blocking with either 5% BSA in TBS 0.1% Tween, 5% milk in TBS 0.1% Tween or StartingBlock™ (TBS) Blocking buffer (ThermoScientific, #37542) membranes were incubated with primary antibodies listed in Table 2.

[3] = biological target: T1, human TLR3 ectodomain (huTLR3-ECD) (Homo sapiens, UniProt O15455); assay: In vitro binding by size exclusion chromatography and immunoblot; settings: chondroitinase ABC digested BGN incubated with TLR3 ECD
T1 construct: The human TLR3-ECD (27-700) was modified with an N-terminal gb67 leader and a C-terminal 6× poly histidine tag; gb67 (gp67) secretion leader (N); 6xHis (C); made in house; host or cells: Sf21 insect cells (baculovirus, pFastBac1, Bac-to-Bac)

binding to huTLR3-ECD by size-exclusion chromatography followed by immunoblotting [3]: co-elution | binding to huTLR3-ECD by size-exclusion chromatography followed by immunoblotting ([3]; listed as huBGN): weak binding interaction
B1: BGN: proteoglycan biglycan (BGN), a structural protein of the extracellular matrix (ECM) (protein)
chain: DEEASGAETTSGIPDLDSLPPTYSAMCPFGCHCHLRVVQCSDLGLKAVPKEISPDTTLLDLQNNDISELRKDDFKGLQHLYALVLVNNKISKIHEKAFSPLRKLQKLYISKNHLVEIPPNLPSSLVELRIHDNRIRKVPKGVFSGLRNMNCIEMGGNPLENSGFEPGAFDGLKLNYLRISEAKLTGIPKDLPETLNELHLDHNKIQAIELEDLLRYSKLYRLGLGHNQIRMIENGSLSFLPTLRELHLDNNKLSRVPAGLPDLKLLQVVYLHTNNITKVGVNDFCPVGFGVKRAYYNGISLFNNPVPYWEVQPATFRCVTDRLAIQFGNYKK
TLR3 expression in VICs [1]: induces TLR3 expression in a dose-dependent manner; also recorded: induced TLR3 expression in VICs | IFNAR1 level [2]: upregulation of IFNAR1 | levels of osteoblastic transcription factor RUNX2 [2]: increased levels | phosphorylation of IRF3 [2]: phosphorylation of IRF3
